Experimental data published in paper PMC6687821, “Brain-targeted drug delivery by manipulating protein corona functions” (Nature Communications, 2019).

Target: T1, mouse plasma ApoE (mouse (endogenous in BALB/c plasma), UniProt P08226 19-311)
T1 construct: apolipoprotein E, mouse, band of 36 kDa identified by nano-LC-MS/MS; also called apolipoprotein E; source: endogenous, BALB/c mouse plasma (in vitro) or blood of injected BALB/c mice (in vivo)
T1 sequence (looked up): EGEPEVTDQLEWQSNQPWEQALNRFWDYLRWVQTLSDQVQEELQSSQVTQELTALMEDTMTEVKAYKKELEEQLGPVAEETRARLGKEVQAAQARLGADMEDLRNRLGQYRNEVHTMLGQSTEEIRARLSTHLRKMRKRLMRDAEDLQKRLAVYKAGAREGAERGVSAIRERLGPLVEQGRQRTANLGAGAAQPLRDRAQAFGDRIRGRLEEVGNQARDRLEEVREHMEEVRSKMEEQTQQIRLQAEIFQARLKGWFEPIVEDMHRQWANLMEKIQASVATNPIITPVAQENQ
Experiment: radioligand binding; SP-sLip (100 μL, 10 mg/mL) with mouse plasma (100 μL) at 37 °C for 1 h, then I-125 rhLRP1 (6 μCi, 0.5 μg) for 1 h at 37 °C; pellet at 19k RCF 30 min, three washes with cold PBS, gamma counter; plain sLip as control
Details: one partner purified

fold of rhLRP1 absorbed on SP-sLip over plain sLip, after preincubation with mouse plasma: 8.4 fold
B1: I-125 radiolabeled recombinant human LRP1 Cluster II Fc Chimera, Human IgG1 (Fc fusion, UniProt Q07954 852-1182, looked up)
chain: PQCQPGEFACANSRCIQERWKCDGDNDCLDNSDEAPALCHQHTCPSDRFKCENNRCIPNRWLCDGDNDCGNSEDESNATCSARTCPPNQFSCASGRCIPISWTCDLDDDCGDRSDESASCAYPTCFPLTQFTCNNGRCININWRCDNDNDCGDNSDEAGCSHSCSSTQFKCNSGRCIPEHWTCDGDNDCGDYSDETHANCTNQATRPPGGCHTDEFQCRLDGLCIPLRWRCDGDTDCMDSSDEKSCEGVTHVCDPSVKFGCKDSARCISKAWVCDGDNDCEDNSDEENCESLACRPPSHPCANNTSVCLPPDKLCDGNDDCGDGSDEGELC
modifications: I-125 radiolabel (residues not stated)
notes: Same bought protein as m6, radiolabeled; the labelling method is not described; also called I^125 radiolabeled rhLRP1; radiolabeled rhLRP1; source: bought: R&D system, then I-125 radiolabeled
